Where “and” joins values, the source holds several entries; their conditions need not be identical. Equal values may be shown once. Read-outs that look alike come from different tables or passages of the source.
Assays:
[1] = molecular target: rat FcγRI (CD64), histidine-tagged recombinant (rat); assay: SPR; His-tagged Fc receptor captured by anti-histidine antibody immobilised on CM5; antibody injected at 100 μg/mL for 1 min; response about 5 s before end of injection, blank subtracted; 25°C, HBS-EP+; Biacore T200
[2] = molecular target: mouse FcγRI (CD64), histidine-tagged recombinant (mouse) (UniProt P26151); assay: as above
[3] = molecular target: human FcγRIIb (CD32b), histidine-tagged recombinant (human) (UniProt P31994); assay: as above
[4] = molecular target: human FcγRI (CD64), histidine-tagged recombinant (human) (UniProt P12314); assay: as above
[5] = molecular target: human FcγRIIIa (CD16a) V158 allele, histidine-tagged recombinant (human) (UniProt P08637); assay: as above
[6] = molecular target: human FcγRIIIa (CD16a) F158 allele, histidine-tagged recombinant (human) (UniProt P08637); assay: as above
[7] = molecular target: human FcγRIIIb (CD16b) NA2 allele, histidine-tagged recombinant (human) (UniProt O75015); assay: as above
[8] = molecular target: human FcγRIIa (CD32a) R131 allele, histidine-tagged recombinant (human) (UniProt P12318); assay: as above
[9] = molecular target: human FcγRIIb (CD32b), histidine-tagged recombinant (human) (UniProt P31994)
[10] = molecular target: human FcγRIIIa (CD16a) V158 allele, histidine-tagged recombinant (human) (UniProt P08637)
[11] = molecular target: human FcγRI (CD64), histidine-tagged recombinant (human) (UniProt P12314); assay: SPR; His-tagged Fc receptor captured by anti-histidine antibody immobilised on CM5; antibody injected at 100 μg/mL for 1 min; response about 5 s before end of injection, blank subtracted; 25°C, HBS-EP+; Biacore T200; remark: listed apart in the source
[12] = molecular target: human FcγRI (CD64), histidine-tagged recombinant (human) (UniProt P12314)
[13] = molecular target: human FcRn, histidine-tagged recombinant (human) (UniProt P55899); assay: SPR; human FcRn immobilised directly on CM5 (EDC/NHS); antibody injected at 20 μg/mL (dose response in Fig 4); HBS-EP+ pH 6.0, 25°C; response normalised to wild type

Chain of mouse FcγRI (CD64), histidine-tagged recombinant (mouse) (P26151 25-297): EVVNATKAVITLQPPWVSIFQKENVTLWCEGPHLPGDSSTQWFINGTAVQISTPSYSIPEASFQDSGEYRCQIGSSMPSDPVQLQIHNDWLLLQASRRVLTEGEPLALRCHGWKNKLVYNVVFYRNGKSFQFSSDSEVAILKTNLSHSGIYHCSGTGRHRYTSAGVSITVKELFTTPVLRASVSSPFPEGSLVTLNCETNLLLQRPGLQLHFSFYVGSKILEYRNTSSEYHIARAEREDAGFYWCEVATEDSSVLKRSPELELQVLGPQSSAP
Chain of human FcγRIIb (CD32b), histidine-tagged recombinant (human) (P31994 43-217): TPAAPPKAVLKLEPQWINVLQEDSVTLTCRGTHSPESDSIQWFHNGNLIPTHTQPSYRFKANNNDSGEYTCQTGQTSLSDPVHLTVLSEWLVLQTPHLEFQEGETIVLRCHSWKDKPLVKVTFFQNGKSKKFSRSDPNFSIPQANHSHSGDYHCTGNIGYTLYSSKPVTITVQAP
Chain of human FcγRIIIa (CD16a) V158 allele, histidine-tagged recombinant (human) (P08637 17-208): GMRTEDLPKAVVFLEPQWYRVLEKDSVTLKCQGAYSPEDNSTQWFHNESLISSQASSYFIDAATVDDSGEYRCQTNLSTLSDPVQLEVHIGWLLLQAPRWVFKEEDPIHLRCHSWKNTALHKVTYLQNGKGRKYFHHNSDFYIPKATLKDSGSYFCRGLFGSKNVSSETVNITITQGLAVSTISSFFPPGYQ
Chain of human FcγRIIIa (CD16a) F158 allele, histidine-tagged recombinant (human) (P08637 17-208): as above
Chain of human FcγRIIIb (CD16b) NA2 allele, histidine-tagged recombinant (human) (O75015 17-200): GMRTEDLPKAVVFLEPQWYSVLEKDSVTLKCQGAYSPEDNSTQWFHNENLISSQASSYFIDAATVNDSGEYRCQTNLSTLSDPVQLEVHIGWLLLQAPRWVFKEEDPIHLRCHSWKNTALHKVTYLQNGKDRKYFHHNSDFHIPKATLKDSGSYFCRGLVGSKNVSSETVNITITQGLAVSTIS
Chain of human FcγRIIa (CD32a) R131 allele, histidine-tagged recombinant (human) (P12318 34-217): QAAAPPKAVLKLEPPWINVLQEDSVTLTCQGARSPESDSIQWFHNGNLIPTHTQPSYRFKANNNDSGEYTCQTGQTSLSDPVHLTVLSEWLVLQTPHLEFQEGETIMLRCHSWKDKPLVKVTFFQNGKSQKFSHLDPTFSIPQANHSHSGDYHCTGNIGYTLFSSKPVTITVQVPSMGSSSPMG
Chain of human FcγRI (CD64), histidine-tagged recombinant (human) (P12314 16-292): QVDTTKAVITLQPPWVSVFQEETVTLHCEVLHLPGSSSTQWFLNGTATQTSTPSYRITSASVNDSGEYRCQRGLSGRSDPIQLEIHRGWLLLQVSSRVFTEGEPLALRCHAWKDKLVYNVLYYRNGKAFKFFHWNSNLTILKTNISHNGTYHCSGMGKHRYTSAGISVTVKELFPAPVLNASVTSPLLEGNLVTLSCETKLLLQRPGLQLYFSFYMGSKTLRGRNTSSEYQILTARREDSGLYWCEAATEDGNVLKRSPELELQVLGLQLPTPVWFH

Row | Substance | mean response [1] [RU] | mean response [2] [RU] | mean response [3] [RU] | mean response [4] [RU] | mean response [5] [RU] | mean response [6] [RU] | mean response [7] [RU] | mean response [8] [RU] | Mean normalised luminescence (% of wild-type reference); Promega Fc effector bioassay, Jurkat NFAT-luciferase cells with the receptor + Raji cells, antibody 10 μg/mL [9] [%] | Mean normalised luminescence (% of wild-type reference); Promega Fc effector bioassay, Jurkat NFAT-luciferase cells with the receptor + Raji cells, antibody 10 μg/mL [10] [%] | mean response [11] [RU] | response [11] | Mean normalised luminescence (% of wild-type reference); Promega Fc effector bioassay, Jurkat NFAT-luciferase cells with the receptor + Raji cells, antibody 10 μg/mL [12] [%] | mean normalised binding response (% of wild-type reference) [13] [%]
1 | anti-CD3 IgG1 L234S/L235V/G236R (antibody) | -4.8 | -8.1 | -4.2 | -5.4 | -12.7 | -3.4 | -4.8 | -3.4 |  |  |  |  |  | 
2 | anti-CD3 IgG1 L234T/L235Q/G236R (antibody) | -2.4 | -5.8 | -2.8 | -3.2 | -10.7 | -0.9 | -3 | -0.2 |  |  |  |  |  | 
3 | anti-CD3 IgG1 L234T/L235T/G236R (antibody) | -3.5 | -5.5 | -3.3 | -3.1 | -8.6 | -2 | -4.4 | -2.8 |  |  |  |  |  | 
4 | anti-CD20 IgG1 L234A/L235A (LALA) (antibody) | -5.3 | -12.2 |  |  |  |  |  |  | 40.6 |  |  |  |  | 
5 | anti-CD20 IgG1 L234S/L235V/G236R (antibody) | -0.4 | 0.1 | -0.8 | -1.6 | 0.8 | 0 | 0.6 | 0.3 | 1.7 | 2.1 | 2.4 | 2.1 RU and 4.3 RU | 1.9 | 
6 | anti-CD20 IgG1 L234T/L235T/G236R (antibody) | -0.8 |  | 0.6 | -2.7 | -0.2 | 1.6 | -0.1 | 1.9 | 1.9 |  |  |  | 1.9 | 
7 | anti-CD20 IgG1 N297Q (aglycosyl) (antibody) |  |  |  |  |  |  |  |  | 1.6 |  |  |  |  | 
8 | anti-CD52 IgG1 L234A/L235A (LALA) (antibody) | -0.7 | 1.8 |  | 452 |  |  |  |  |  |  |  |  |  | 105
9 | anti-CD52 IgG1 L234G/L235S/G236R (antibody) | -1.7 | -2.3 | -5.5 | -3.5 | -2.4 | -4.2 | -4.8 | -3.5 |  |  |  |  |  | 118
10 | anti-CD52 IgG1 L234S/L235T/G236R (antibody) | -2.9 | -4.6 | -4.4 | -5.1 | -5.6 | -3.3 | -4.3 | -3.1 |  |  |  |  |  | 116
11 | anti-CD52 IgG1 L234S/L235V/G236R (antibody) | -2.1 | -2.5 | 2.4 | -20.3 | -1.3 | 2.2 | 2.6 | -4.2 |  |  |  |  |  | 119
12 | anti-CD52 IgG1 L234T/L235Q/G236R (antibody) | 0.5 | -1.4 | 1.3 | -10.6 | -3.1 | 0.7 | 0.4 | -2.2 |  |  |  |  |  | 115
13 | anti-CD52 IgG1 N297Q (aglycosyl) (antibody) |  | 50.4 |  | 431 |  |  |  |  |  |  |  |  |  | 103

Now from value to substance:

Row | mean response [1] [RU] | mean response [2] [RU] | mean response [3] [RU] | mean response [4] [RU] | mean response [5] [RU] | mean response [6] [RU] | mean response [7] [RU] | mean response [8] [RU] | Mean normalised luminescence (% of wild-type reference); Promega Fc effector bioassay, Jurkat NFAT-luciferase cells with the receptor + Raji cells, antibody 10 μg/mL [9] [%] | Mean normalised luminescence (% of wild-type reference); Promega Fc effector bioassay, Jurkat NFAT-luciferase cells with the receptor + Raji cells, antibody 10 μg/mL [10] [%] | mean response [11] [RU] | response [11] | Mean normalised luminescence (% of wild-type reference); Promega Fc effector bioassay, Jurkat NFAT-luciferase cells with the receptor + Raji cells, antibody 10 μg/mL [12] [%] | mean normalised binding response (% of wild-type reference) [13] [%] | Substance
14 | -4.9 | -3.3 |  |  |  |  |  |  |  |  |  |  |  |  | anti-CD3 IgG1 L234A/L235A (LALA) (antibody)
15 | -5.2 | -6.2 |  |  |  |  |  |  |  |  |  |  |  |  | anti-CD3 IgG1 L234A/L235A/P329G (LALAPG) (antibody)
16 | -4.2 | -5.9 | -5.1 | -5.2 | -14.4 | -4.7 | -6.4 | -4.8 |  |  |  |  |  |  | anti-CD3 IgG1 L234G/L235S/G236R (antibody)
17 | -5.1 | -7.5 | 3.9 | -5.2 | -11.3 | 3.3 | 4.7 | 1.4 |  |  |  |  |  |  | anti-CD3 IgG1 L234S/L235T/G236R (antibody)
18 | 0.7 | 2.4 |  |  |  |  |  |  | 1.7 | 2.1 |  |  |  |  | anti-CD20 IgG1 L234A/L235A/P329G (LALAPG) (antibody)
19 | -3.9 | -2.1 | -0.1 | -1.5 | 1 | 1 | -1.6 | 2.1 | 1.7 | 2.5 | 1.9 |  |  |  | anti-CD20 IgG1 L234G/L235S/G236R (antibody)
20 | -2.4 | -5.4 | 0.5 | -1.3 | -6.3 | 1.9 | -3 | 2.6 |  |  |  |  |  |  | anti-CD20 IgG1 L234S/L235T/G236R (antibody)
21 | -2.5 | -4.1 | -1.1 | -1.9 | -4 | -0.5 | -1.5 | 0.2 | 1.7 | 2.1 | 3 | 4.5 RU | 1.9 |  | anti-CD20 IgG1 L234T/L235Q/G236R (antibody)
22 | -0.8 | -2.1 |  | 33.7 |  |  |  |  |  |  |  |  |  | 105 | anti-CD52 IgG1 L234A/L235A/P329G (LALAPG) (antibody)
23 | -3.4 | -3.9 | -0.1 | -20.7 | -2 | -1.9 | 0.8 | -8.7 |  |  |  |  |  | 118 | anti-CD52 IgG1 L234T/L235T/G236R (antibody)

Source: article PMC8691596
